Values quoted from earlier work in publication PMC4739856.
Where “and” joins values, the source holds several entries; their conditions need not be identical. Equal values may be shown once. Read-outs that look alike come from different tables or passages of the source.

How the values were obtained:
His12 [1] = target: T1, His12 (UniProt position 38, KFERQHMDSST); experiment: NMR; conditions: apo (ligand-free) RNase A
His119 [2] = target: T2, His119 (UniProt position 145, PYVPVHFDASV); experiment: NMR; conditions: apo (ligand-free) RNase A
His12 [3] = target: T1, His12
His119 [4] = target: T2, His119

Ribonuclease A (RNase A, pancreatic ribonuclease) (Bos taurus)
pKa (His12 [1]): 5.87 and 6.18 | pKa (His119 [2]): 6.03 and 6.34 | pKa (His12 [3]; apo (ligand-free) RNase A): 5.8 | pKa (His12 [3]; complex with 3'-CMP): 8.0 | pKa (His119 [4]; apo (ligand-free) RNase A): 6.2 | pKa (His119 [4]; complex with 3'-CMP): 7.4
